System: K4 kissing-loop RNA reporter
Experiment: apparent KD of K4 kissing-loop reporter; higher = weaker reporter binding
Settings: Eterna round: R107
Procedure: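 RNA-MaP round R107: designed RNA switches with theophylline, tryptophan, arginine or FMN aptamers are transcribed on-chip within common flanks. They are titrated with a labelled K4 kissing-loop RNA reporter in RNA-MaP buffer (100 mM Tris pH 7.5, 80 mM KCl, 4 mM MgCl2), without ligand or with the indicated ligand. Median apparent KD per design.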

[1] = input ligand: theophylline 20 uM
[2] = input ligand: tryptophan 2.4 mM
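Note: bound reporter read as fluorescence of individual clusters on recovered sequencing chips by microscopy, with normalized cluster intensities fitted with a binding model.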

Row | Sequence | apparent KD of K4 kissing-loop reporter (input ligand: FMN 200 uM) [nM] | apparent KD of K4 kissing-loop reporter (input ligand: arginine 13.2 mM) [nM] | apparent KD of K4 kissing-loop reporter (input ligand: none) [nM] | apparent KD of K4 kissing-loop reporter [1] [nM] | apparent KD of K4 kissing-loop reporter [2] [nM]
1 | GGCGGCCGCGCGCAAGCGCGGCCGGCCGAUACCAGCGCGACGGCGCGCCCUUGGCAGCGGCGCCGAGUGAUGUUCGGCCUGCCGU [#2 Same State - Theophylline A Attempt #15 (HarryS)] | 151 | 81.1 | 146 | 94.2 | 96.4
2 | CAUAGGAAACUAUGUUCCUCUCUUACUGAAGGAGCGCGUGAAAACGCAGGUAGGUCGCAGGAUUUGAGAGUGAUGUUCUCAUUAA [Ex Arginine A K4 15] | 160 | 260 | 254 | 278 | 171
3 | AAGUGUGUGGCGGCCGCCACUAGAAUCCAGUGAUGUUGGAGUUAUCAGAUAAAUGAUAAUCAACAUAGGACCGGGCCAUAUAGAA [Same State - Tryptophan B (Freestyle 5)] | 703 | 689 | 455 | 630 | 425
4 | UUGGAAAUCAGAAGGAGCGUCUAAAAUAAGAGAACCAGUGAUGUUGGUUUUAUUUAAUGAAGACAGGUAGGUCGCUGAAUUUUUA [Same State Arginie B GF 19] | 100 | 95.2 | 99.3 | 96.1 | 94.9
5 | AGUGAAGUUAGUGAUGUGUGAGUUUGGGAAGGAGCGCCGAGGAAGGCAGGUAGGUCGCCCAGUGAUGUUGGUGUAAGGAUGAGAG [whbob_Ex_Arginine_A_2t123] | 451 | 332 | 311 | 262 | 303
6 | UACCUGCUGUCAGGAUAUGAGUGCAGUGAUGUUGCACUCAACGUAACCAUCUUGAAAUGCAAACACUCAGAAGGGACGCGCGAAG [Onaninso] | 151 | 99.8 | 122 | 91.8 | 102
7 | GGAUCCACCAGUGAUGUUGGAGAAAACUCCGAGGAUAUGACGAAAGUCAGAAGGUGGUAGACUGGACAAAGUCCGGUCGGAUCCA [FmnA 24 #SwitchBubble #K4Early] | 790 | 83.3 | 288 | 162 | 101
8 | UGUAAGCGCGUAGAUACCAGCAGACGAGUGAUGUUCAAAAGAUUAAGGAAAAGAAAGUAAUGCCCUUGGCAGCUAAUCAUAAGCG [whbob_Ex_Theo_B_sa92] | 243 | 460 | 466 | 517 | 295
9 | AAGAAGAAUGGAAGGAGCGAGCAGAUAUAACCAGUGAUGUUGGAAAGCCUUAUUGCUUAAGCUCAGGUAGGUCGCCAAGAAAAGA [whbob_Ex_Arginine_B_2t151] | 162 | 153 | 172 | 193 | 212
10 | GGUAGCAUGGCGGCCGCCACUUCAAGUGGAGUGAUGUUCCACGGCAUCGCGAAAGCGAUGCCUGGAAGGACCGGGCCAUGCUACC | 738 | 739 | 720 | 761 | 284
11 | GCCGUACGCAUGGAUACCAGUCUACAUCGCAGUGAUGUUGCGUAGUUCAGAUUAACUGCCGACCCUUGGCAGCCAUGCGUACGGC | 134 | 111 | 127 | 118 | 120
12 | AAGUGAUGUUGUAGUGAUGUUGUGAUGUUGCAGGAUAUAUAGUGAUGUAGAAGGGUAUGUGCAGUGUUGUUGUUUGAGUGUUGAU [twwumullin] | 90.3 | 43.2 | 74.7 | 68.6 | 68.7
13 | CGUUGUGAUGCUUGUGCUCAUACCGGAGAUACCAGUACCAUCACUUACCCUUGGCAGCUCAGUAAAGACAAGUGAUGUUUGUCAC [theeternabot_sameState_KL_Theo_A_38] | 684 | 528 | 805 | 560 | 502
14 | AAAAGCCAGCAAGGAUAUACGCGCGAAGCAUCCAUGGUGCCAGUUCCAGUGAUGUUGGACCACAUCGUAGAAGGUGCGCGGCUCA [theeternabot_sameState_KL_FMN_B_33] | 440 | 223 | 266 | 224 | 274
15 | CGCAGUGAUGUUGCUAUUAUUCUUGGUUAACGAGGACCGGUACGGCCGCCACUCGAUUUCUAUCUAAUCCAGUGUUUUUUUGAGU [JR_ExcTryptoA_Sub003] | 301 | 377 | 396 | 458 | 204
16 | AAUUUAUUAACUGAUACCAGACUUUAGCGUGUUUAUAAGUCAAGUGAUGUUUGACUAUUAGUCCCUUGGCAGCAGUAUUUAUUAA [JR_SSTheophyB_Sub022] | 149 | 131 | 134 | 114 | 120
17 | AGUGUGCAAAAGCACACUCAGCACAAGGACAAGGAUAUCUACUAAUAGAGAAGGUGUCCUUUCCUUAGUGAUGUUAAGGAGCUGA [Omei KL FMN A SS D v1] | 238 | 526 | 700 | 624 | 693
18 | GCCGUACGCAUGGAUACCAGACUACCAUUGGAAACAAUGUGUCCGGUAGUGAUGUUACCUGUCCCUUGGCAGCCAUGCGUACGGC | 649 | 549 | 702 | 396 | 655
19 | GUACGCUCCCGAGUGAUGUUCGGUAAUCGCUAGGAUAUCGCUUUUGCGAGAAGGAGCGGAAUGAGGAAACUCGUUCUGAGUGUAC [FMN A 26] | 300 | 254 | 350 | 386 | 338
20 | UUUCUUUUAAUAACACUUUAUACAACUGAAGGAGCGACAAUAAAGUCAGGUAGGUCGCAGAAUUAAUGAGUGAUGUUCAUAUUUA [JR_ExcArginiA_Sub012] | 95.4 | 197 | 121 | 180 | 83
21 | AAGCGUAAAAUGGCGGACAUACUGCUCCCACGAGGACCGGUACGGCCGCCACUCGAAUGCGGCAGUGAUGUUGCCGCCUUCGCGU [Zauslereed] | 74 | 68.3 | 62.8 | 69.9 | 62.5
22 | CACUUACGUAGUGAUGUUACGAUCUCUGAUACCAGACAACUCUAAGUCCCUUGGCAGCAGUCAUUUUGCUUUUAAUUUACUCAAA [JR_ExcTheophyA_Sub014] | 552 | 572 | 682 | 578 | 425

Row | Sequence | apparent KD of K4 kissing-loop reporter (input ligand: FMN 200 uM) [nM] | apparent KD of K4 kissing-loop reporter (input ligand: arginine 13.2 mM) [nM] | apparent KD of K4 kissing-loop reporter (input ligand: none) [nM] | apparent KD of K4 kissing-loop reporter [1] [nM] | apparent KD of K4 kissing-loop reporter [2] [nM]
23 | GGCAGUGAUGUUGCCUAAGCAACGCAUGCGGAGGAUAUUCGUUCGGGAAGAAGGCCGCAGCGUUCUCUCGCGAGUGAUGUUCGCA [Same State FMN A GF 22] | 158 | 160 | 173 | 166 | 147
24 | AUUAAGAUAUGAGUGAUGUUUAUGUCCGAAGGAGCGUGCGAAAGUACAGGUAGGUCGCGGAUGUGAGUGAUGUUUAUGUAAGCGU [KL-XArg-A15 #analogue] | 109 | 33.8 | 97.1 | 65 | 83.4
25 | UGGAGUUGACGAAAAGUCAACUCCUGAGAUACCAGUGACGAAAGUCACCCUUGGCAGCUCACUGGCAGUGAUGUUGCGCGAUAAA [#23 K4 Theophylline A Same State] | 376 | 288 | 364 | 367 | 402
26 | UGCAGUGAUGUUGCUAUUUUUCUUGAUUAACGAGGACCGGUACGGCCGCCACUCGAUUUCUCUCUAGUCCAGUAUGUUGUUUGAU [whbob_EX_Tryp_A_t5] | 96.2 | 124 | 99.8 | 125 | 82.9
27 | UGUGUUGUUUUGAUGUUUGGUGUUUGUUGGCAGGAUAUCGUAGAGGCGAGAAGGGCUUUGUUGCGGUAUGAGUGAUGUUUGUAGG [szzrmullin] | 349 | 174 | 295 | 244 | 255
28 | CGUUCUUCUGUCGAUACCAGCUUCAGUUGGCGGCCAGUGAUGUUGGUAUCGCCGAUGCCAAGCCCUUGGCAGCGACAUGAGACCC [Onrire] | 171 | 180 | 182 | 130 | 168
29 | UAUACUAGACAAGAGAGAAUUCUCUCAAGAGAGGAUAUCCGAAUUCGGAGAAGGCUCUCUAAGUGAUGUUUGGAAUAGUCUAGAA [AK5 SS FMN A] | 660 | 448 | 737 | 500 | 500
30 | AAGUGAUGUUGUAGUGAUGUUGUGAUGUUGCAGGAUAUAUAGUGAUGUAGAAGGGUAAGGACUGUUUUUUUUUUUGAGUGAUGUU [ookooyzrmullin] | 94.2 | 41.4 | 70.5 | 56.8 | 73.3
31 | AAUUUAUAUUUAUUCUUUAAUUGUUCAGAAGGAGCGUGAAUUAUCACAGGUAGGUCGCUGAGCUAGUGAUGUUAGCUAUAUACUA [JR_ExcArginiA_Sub008] | 65.5 | 105 | 62.8 | 82.8 | 58.4
32 | AUUUUGGUUUAGAGUGAUGUUCCUUGUAUUCGAGGACCGGUACGGCCGCCACUCGGAUAGAAAAGAAAAGAAAUGUUUGAUUUUU [BDazzled - #8 SS Tryptophan A] | 339 | 219 | 458 | 260 | 298
33 | GCGAUUCAGUGAUGUUGGAAAUACAGGGAUACCAGCCGAGAAUAAGGCCCUUGGCAGCUUAAUAGGAAAGAACUAAGUAAGACGC [Theophylline A Same State; Euphoria Solution 2] | 574 | 569 | 877 | 616 | 402
34 | CUUAUUUCUCGCUAUGAUGUUAGUUGAGCCAAGGAUAUUAAUGAAUUAAGAAGGUGGGUUUUUAAGUGAUGUUUUGAGACUGGCA [theeternabot_exclusion_KL_FMN_A_27] | 793 | 718 | 863 | 727 | 568
35 | CGAGUCCUGAGGAGUGAUGUUCCUCGGCCACGAGGACCGGUACGGCCGCCACUCGUUACUCGGGCUUAGUAGCUAGCACUAAGCU [Quedmaon] | 265 | 171 | 186 | 232 | 101
36 | AAAAUAAUCCAGUGAUGUUGGUAUCCAGAUACCAGCCAGGAAACUGGCCCUUGGCAGCUGGCGACGUACAAAAUAAGUACGUCGU [#OpenEnded 11 #StaticStem #K4Early] | 405 | 184 | 470 | 664 | 374
37 | UCGUCUGUGUGAGGAUAUCCAAGCGAGCUGCGUACAGGUGCGGCGUUUGGAGUGAUGUUCCAGGCAGGAGAAGGCGCACGGGCUU [Esored] | 191 | 247 | 284 | 285 | 251
38 | AAGUGUCAUUAGACACAGACUACAAUAAACUAGGAUAUGCUGAUAAGCAGAAGGAGUGAUGUUCCUUUCAAGUAGUCAAUUAAAU [FmnAX 20 Mat Inspired #SwitchBubble #StaticStem #K4Late] | 243 | 120 | 106 | 128 | 97.6
39 | UGACGUUUGGGAAGGAGCGGAAUGUAAUACGGAACGCGUGGAGAUGCAGUGAUGUUGCAGAUCCAGGUAGGUCGCCCAAGGGACG [Zainat] | 91.4 | 72 | 76.2 | 84.9 | 94.2
40 | AGUAGAGCAUCAGAUACCAGACUGAACUGAUGGUAAGGAGUGAUGUUCCUUAAUCAGCUAGUCCCUUGGCAGCUGAUAAUAGUCA [Theo B SS t3] | 251 | 253 | 268 | 183 | 222
41 | CUUAAGACAUGAGUGAUGUUCAUGUCCGAAGGAGCGUGCGAAAGCACAGGUAGGUCGCGGACGUGAGUGAUGUUCAUGUAAGCGA [KL-XArg-A11 #analogue] | 159 | 125 | 156 | 154 | 140
42 | ACUAGAAAACCAGUGAUGUUGGCCUGGGAUACCAGCUUCUAUUAUAGCCCUUGGCAGCCCUUUAGUACAAGUGACCUUGCGACCG [theeternabot_sameState_KL_Theo_A_9] | 299 | 217 | 452 | 217 | 277
43 | UGUCGAGUGAUGUUCGAUGUGGUGCAUUCAGAGGAUAUAGGGUGGGCUAGAAGGCUGAAAAGUGCUUCGAGUGAUGUUCGAAGAU [Exclusion FMN A GF8] | 70.6 | 117 | 144 | 132 | 110

From the supplement of paper PMC9170038
